In patent US12098206B2, “PDGF receptor antibody and use thereof” (Seoul National University R&DB Foundation, priority 2018, dated 2024):
Residue numbers refer to the chain shown, from its start. Where two headings read alike, the source gives them in different places.

Legend:
[1] = rats; cited from earlier work
[2] = persons treated with up to 1,800 mg for 4 consecutive days; cited from earlier work
[3] = biological target: PDGFR-β (Homo sapiens, UniProt P09619); conditions: cited from earlier work
[4] = combination of Olaratumab and doxorubicin compared to doxorubicin alone; cited from earlier work
[5] = mice; conventional studies; cited from earlier work
[6] = test system: NIH3T3 cells; test: cells; assay type: cell-based, mouse; conditions: for IC50: Mus musculus, NIH3T3, 72 h, NIH3T3 cells, 72 hours; for toxicity with the addition of mPDGF-BB: complex with cot-duo or cot-duo-cot; for toxicity with the addition of mPDGF-BB / toxicity compared to control anti-HER2 x cotinine scFv-Cκ-scFv: NIH3T3, FIG. 5; for toxicity compared to control anti-HER2 x cotinine scFv-Cκ-scFv: complex with cotinine-duocarmycin, with or without mPDGF-BB
Procedure: NIH3T3 cells were added to 50 μL of DMEM supplemented with 10% FBS and 1% penicillin/streptomycin, placed in a 96-well plate (CLS3595, Corning) and incubated overnight in 5% CO2 at 37° C. incubator. In each well containing 50 μL of cells, 50 μL of 50 anti-PDGFR-β x cotinine scFv-Cκ-scFv fusion protein (25.6 pM-2 μM) complexed with cot-duo or cot-duo-cot obtained in Experimental Example 10 was added and incubated for 72 hours in 5% CO2 at 37° C. incubator. To test mPDGF-BB on the toxic effect of the bispecific antibody of scFv-Cκ-scFv and the cotinine-duocarmycin complex, mPDGF-BB (2 nM) was added together with 50 μL of the bispecific antibody scFv-Cκ-scFv and the cotinine-duocarmycin complex. The mixed complexes were added to 50 μL of NIH3T3 cells.
The bispecific antibody of anti-HER2 x cotinine scFv-Cκ-scFv was used as a control. After 72 hours of incubation in the cells, 100 μL of Cell Titer-Glo reagents (Promega Corp., Madison, WI, USA) were added to all wells according to the manufacturer's instructions, and luminescence was measured in a luminometer (PerkinElmer, Waltham, MA, USA). The experiment was repeated 3 times. Relative viability was calculated with the following formula: [% viability=(luminescence of experimental well-luminescence of background well)/(luminescence of control-luminescence of background well)×100]. The wells containing only new medium were used as background wells.
To evaluate the toxicity of the complex of anti-mPDGFR-B x cotinine scFv-Cκ-scFv bispecific antibodies and cotinine duocarmycin (cot-duo, cot-duo-cot), the complexes were added to NIH3T3 cells in the presence/absence of mPDGF-BB. The ATP of the cells was measured for relative cell viability. The toxicity of the bispecific antibody of scFv-Cκ-scFv fusion antibody was shown by IC50 in Table 6 and FIG. 5.
It was carried out in the same manner as in Example 7, except that the bispecific antibody related with the anti-mPDGFR-β antibody and the bispecific antibody related with the anti-hPDGFR-β antibody prepared in Example 10 were used. FIG. 20a to FIG. 20b are graphs showing the difference in cytotoxic activity of PRb-CN01 and PRb-CN32 bispecific antibodies and cotinine-duocarmycin complexes in the cells expressing PDGFR-β. In FIG. 20b, an experiment was repeated in the presence of mPDGF-BB.

[7] = test system: NIH3T3 cells; test: Internalization analysis by confocal microscopy in NIH3T3 cells; assay type: cell-based, mouse; conditions: 10 μg/mL, 37° C., 30 minutes, FIG. 4c
Procedure: The bispecific antibody of scFv-Cκ-scFv fusion protein was analyzed with a confocal microscope for visualizing internalization. NIH3T3 cells were treated with the bispecific antibody of scFv-Cκ-scFv (10 μg/mL) diluted in DMEM containing 10% FBS, and internalized at 37° C. for 30 minutes. After washing the cells 3 times with cold PBS, acidic buffer (0.2 M acetic acid, 0.5 M sodium chloride) was treated at room temperature for 5 minutes to remove the antibody bound to the cell surface. Cells were washed twice with cold PBS, fixed with 4% paraformaldehyde for 10 minutes, and then subjected to immunofluorescence staining as previously described [J. M. Lim et al., J. Cell. Biol. 210 (2015) 23].
Briefly, to block antibodies having non-specific reaction, cells were incubated in PBS containing 5% horse serum and 0.1% Triton X-100 for 30 minutes, and 2 μg/mL FITC-anti human Cκ antibody (TB28-2, BD Biosciences) was added at room temperature for 30 minutes. To image the initial endosomes, the cells were washed 3 times with PBS, incubated with PBS containing 5% horse serum and 0.1% Triton X-100 for 30 minutes, and then incubated with ati-RabS antibody diluted to 1:200 (C8B1, Cell Signaling Technology, Danvers, MA, USA). Alexa Fluor 546 goat anti-rabbit IgG (A-11035, Invitrogen) was sequentially treated. Cells were treated with 0.2 μg/mL DAPI to detect DNA. Confocal microscopy images were obtained using a Zeiss LSM 880 microscope, and images were analyzed with Zen software (Carl Zeiss, Thornwood, NY, USA).
To measure the cellular internalization of the bispecific antibody of scFv-Cκ-scFv, anti-mPDGFR-β x cotinine scFv-Cκ-scFv fusion protein was incubated in NIH3T3 cells, and then treated with FITC-anti-human Cκ antibody and endosome-specific antibody. It was imaged using a confocal microscope. […] When the images were merged, the present inventors confirmed that the fluorescence of the three antibody clones and the endosome-specific antibody were co-localized.

[8] = biological target: T1, mPDGFR-β and cotinine (Mus musculus, UniProt P05622); test: Enzyme immunoassay, simultaneous binding to cotinine and mPDGFR-β; conditions: cotinine-BSA coated wells, then mPDGFR-β-Fc chimera; FIG. 3d
T1 construct: mPDGFR-β
T1 sequence (P05622 32-530): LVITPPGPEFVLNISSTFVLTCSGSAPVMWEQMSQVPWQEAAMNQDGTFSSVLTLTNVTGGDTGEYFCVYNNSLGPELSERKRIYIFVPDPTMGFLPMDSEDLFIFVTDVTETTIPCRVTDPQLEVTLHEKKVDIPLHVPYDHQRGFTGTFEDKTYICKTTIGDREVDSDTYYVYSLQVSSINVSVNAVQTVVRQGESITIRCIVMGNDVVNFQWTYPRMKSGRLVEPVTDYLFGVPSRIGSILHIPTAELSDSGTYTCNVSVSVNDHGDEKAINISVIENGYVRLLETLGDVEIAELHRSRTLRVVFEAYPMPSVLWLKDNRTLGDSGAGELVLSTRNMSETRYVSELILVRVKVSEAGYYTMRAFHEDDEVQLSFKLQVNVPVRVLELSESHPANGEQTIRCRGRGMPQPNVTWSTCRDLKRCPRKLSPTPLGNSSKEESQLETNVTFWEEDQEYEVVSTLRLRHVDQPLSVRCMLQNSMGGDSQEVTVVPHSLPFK
Procedure: In order to confirm whether the bispecific antibody has simultaneous binding ability to both cotinine and mPDGFR-β, anti-mPDGFR-β x cotinine scFv-Cκ-scFv fusion protein was reacted in wells coated with cotinine-BSA. Washing was performed for each process, and mPDGFR-β-Fc chimeric protein and HRP-anti human Fc antibody were sequentially incubated.

[9] = biological target: T2, mPDGFR-β (Mus musculus, UniProt P05622); test: Competition enzyme immunoassay with mPDGF-BB; assay type: binding; conditions: mPDGF-BB 100 nM; FIG. 4a
T2 construct: mPDGFR-β
T2 sequence (P05622 32-530): T1 sequence (P05622 32-530)
Procedure: In order to confirm the competition between the bispecific antibody according to the present invention and mPDGF-BB, the microtiter plate was coated with mPDGFR-β-Fc chimera as mentioned above and then blocked. The microtiter plate was treated with various concentrations of the bispecific antibody (0.06 nM-1 μM) with or without addition of mPDGF-BB (100 nM), and then incubated at 37° C. for 2 hours. The washing, incubation, and detection were performed in the same manner as the enzyme immunoassay described above.
A competition enzyme immunoassay was developed to examine the effect of mPDGF-BB on the binding ability of anti-mPDGFR-β x cotinine scFv-Cκ-scFv fusion protein. The serially diluted bispecific antibodies (anti-mPDGFR-β scFv-Cκ-cotinine scFv) were incubated on wells coated with mPDGFR-β-Fc chimeric fusion protein with or without mPDGF-BB. HRP-anti-human Cκ antibody was incubated and then TMB was added. […] However, the binding ability of PRb-CN01 was not inhibited, so it confirmed that PRb-CN01 binds to mPDGFR-β in a noncompetitive manner to mPDGF-BB.

Chain of PDGFR-β (P09619 33-1106): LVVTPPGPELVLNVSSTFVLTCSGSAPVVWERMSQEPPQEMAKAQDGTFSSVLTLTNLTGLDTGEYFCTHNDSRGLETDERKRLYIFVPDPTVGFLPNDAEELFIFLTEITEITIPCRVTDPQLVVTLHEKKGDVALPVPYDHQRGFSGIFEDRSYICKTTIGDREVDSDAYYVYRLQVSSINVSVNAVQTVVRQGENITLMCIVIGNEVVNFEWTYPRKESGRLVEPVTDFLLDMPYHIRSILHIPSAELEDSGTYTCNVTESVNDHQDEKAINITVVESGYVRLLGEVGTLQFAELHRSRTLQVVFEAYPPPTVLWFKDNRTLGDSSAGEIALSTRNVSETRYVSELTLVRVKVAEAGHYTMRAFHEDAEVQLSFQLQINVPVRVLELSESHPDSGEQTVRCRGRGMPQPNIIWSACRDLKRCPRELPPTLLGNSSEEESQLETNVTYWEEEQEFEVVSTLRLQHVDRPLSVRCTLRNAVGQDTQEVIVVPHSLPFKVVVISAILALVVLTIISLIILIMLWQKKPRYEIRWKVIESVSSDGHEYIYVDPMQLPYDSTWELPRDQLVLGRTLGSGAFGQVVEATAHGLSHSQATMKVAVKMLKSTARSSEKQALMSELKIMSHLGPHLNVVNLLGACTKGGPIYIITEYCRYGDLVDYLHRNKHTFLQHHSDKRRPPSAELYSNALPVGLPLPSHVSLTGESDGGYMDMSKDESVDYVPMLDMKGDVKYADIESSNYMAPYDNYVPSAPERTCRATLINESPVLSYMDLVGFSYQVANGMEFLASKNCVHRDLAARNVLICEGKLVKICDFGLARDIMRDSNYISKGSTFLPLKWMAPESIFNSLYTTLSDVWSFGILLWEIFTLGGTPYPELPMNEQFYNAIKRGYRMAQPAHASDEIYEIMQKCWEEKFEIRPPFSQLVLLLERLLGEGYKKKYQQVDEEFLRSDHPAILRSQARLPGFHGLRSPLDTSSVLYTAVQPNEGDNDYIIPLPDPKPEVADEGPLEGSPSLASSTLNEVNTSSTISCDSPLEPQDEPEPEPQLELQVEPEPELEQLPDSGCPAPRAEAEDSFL

CN1C(=O)CC[C@H]1c1cccnc1 [Cotinine, cotinine]
LD50 [1]: 4000 ± 100 mg/kg
adverse side effects [2]: no adverse side effects were induced

Olaratumab: recombinant human IgG1 antibody against PDGFR-α
cross-reactivity with PDGFR-β [3]: dose not cross-react with PDGFR-β
overall mean survival [4]: significantly improved overall mean survival compared to doxorubicin alone

COC(=O)c1cc2c([nH]1)C(=O)C=C1N(C(=O)c3cc4cc(OC)c(OC)c(OC)c4[nH]3)C[C@H]3C[C@]123 [Free duocarmycin, duocarmycin, reference compound]
weight loss [5]: induced significantly weight loss
IC50 ([6]; read-out: Cot-duo IC50 (nM), complex with cot-duo (DAR4), or conjugate/free drug alone, with mPDGF-BB (2 nM)): 23.8 nM
IC50 ([6]; read-out: Cot-duo IC50 (nM), complex with cot-duo (DAR4), or conjugate/free drug alone, without mPDGF-BB): 9.7 nM
IC50 ([6]; read-out: Cot-duo-cot IC50 (nM), complex with cot-duo-cot (DAR2), or conjugate/free drug alone, with mPDGF-BB (2 nM)): 60.3 nM
IC50 ([6]; read-out: Cot-duo-cot IC50 (nM), complex with cot-duo-cot (DAR2), or conjugate/free drug alone, without mPDGF-BB): 35.7 nM

B1: PRb-CC01: anti-mPDGFR-β scFv clone (VH SEQ ID NO 15, VL SEQ ID NO 16), tested as scFv-Cκ-anti-cotinine scFv bispecific antibody (antibody, V domains shown)
VH: AVTLDESGGGLQTPGGALSLVCKGSGFTFSSYNMGWVRQAPGKGLEFVAGISAADNSTAYGAAVDGRATISRDNGQSTVRLQLNNLRAEDTATYFCIRGGGSIDAWGHGTEVIVSS
VL: LTQPSSVSANLGGTVKITCSGGGSYYGWYQQKSPGSAPVTLIYYNDKRPSDIPSRFSGSKSGSTGTLTITGVQAEDEAVYFCGAWDNSAGYAGFGAGTTLTVL
modifications: VH of PRb-CC01; VL of PRb-CC01
cellular internalization [7]: not internalized
toxicity with the addition of mPDGF-BB [6]: decreased with the addition of mPDGF-BB
simultaneous binding to mPDGFR-β and cotinine [8]: simultaneously bound to mPDGFR-β and cotinine
binding ability to mPDGFR-β in the presence of mPDGF-BB [9]: inhibited in the presence of mPDGF-BB

B2: PRb-CC02: anti-mPDGFR-β scFv clone (VH SEQ ID NO 23, VL SEQ ID NO 24), tested as scFv-Cκ-anti-cotinine scFv bispecific antibody (antibody, V domains shown)
VH: AVTLDESGGGLQTPGGALSLVCKASGFTFSSYGMFWVRQAPGKGLEWVAGIDTGSGTNYGSAVKGRATISRDNGQSTVRLQLNNLRAEDTGTYFCTRGYAGTIDAWGHGTEVIVSSTS
VL: LTQPSSVSANPGETVKITCSGGGGSYGWYQQKSPGSAPVTVIYYNDKRPSDIPSRFSGSKSGSTGTLTITGVQAEDEAVYFCGSYNSSDSLFGAGTTLTVL
modifications: VH of PRb-CC02; VL of PRb-CC02
cellular internalization [7]: Intracellular fluorescence was detected
toxicity with the addition of mPDGF-BB [6]: decreased with the addition of mPDGF-BB
toxicity compared to control anti-HER2 x cotinine scFv-Cκ-scFv [6]: showed toxicity compared to the control antibody and the non-internalizing antibody (PRb-CC01), but did not show statistical significance
simultaneous binding to mPDGFR-β and cotinine [8]: simultaneously bound to mPDGFR-β and cotinine
binding ability to mPDGFR-β in the presence of mPDGF-BB [9]: inhibited in the presence of mPDGF-BB

B3: PRb-CC03: anti-mPDGFR-β scFv clone (VH SEQ ID NO 31, VL SEQ ID NO 32), tested as scFv-Cκ-anti-cotinine scFv bispecific antibody (antibody, V domains shown)
VH: AVTLDESGGGLQTPGGTLSLVCKASGFTFSSYAMGWVRQAPGKGLEWVAGIDTAGGTAYGPAVKGRATISRDNGQSTVRLQLNNLRAEDTATYYCTRSSYIDTWGHGTEVIVSSTS
VL: B2 VL with G23T, G24Y, S25N, Y44W, F81Y, Y85S, N86D, D89G, S90L, L91I
modifications: VH of PRb-CC03; VL of PRb-CC03
cellular internalization [7]: Intracellular fluorescence was detected
toxicity with the addition of mPDGF-BB [6]: decreased with the addition of mPDGF-BB
toxicity compared to control anti-HER2 x cotinine scFv-Cκ-scFv [6]: showed toxicity compared to the control antibody and the non-internalizing antibody (PRb-CC01), but did not show statistical significance
simultaneous binding to mPDGFR-β and cotinine [8]: simultaneously bound to mPDGFR-β and cotinine
binding ability to mPDGFR-β in the presence of mPDGF-BB [9]: inhibited in the presence of mPDGF-BB
